{"source": "the supplement of paper PMC10126150", "test_system": "ATP", "assay": "switch fluorescence ratio, 500 uM ATP over buffer (Cy3 cluster intensity, sum of 5 cycles each) (fold (ratio)); higher = stronger signal-on switching upon ATP binding; sequences stand for … in TCGTCGGCAGCGTCAGATGTGTATAAGAGACAGTTTTTTTTTTTTTTTTTTTTTTTTT…TC", "conditions": "aptamer strand: ATP DNA aptamer (quencher-CACCTGGGGGAGTATTGCGGAGGAAGG + anchor), 100 nM annealed; ATP concentration: 500 uM", "how_it_was_run": "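Values give the fluorescence ratio for each switch-domain sequence, averaged from per-cluster ratios of summed target-cycle to summed buffer-cycle Cy3 intensity. The Cy3-labelled switching-strand clusters sat on a modified Illumina MiSeq flow-cell, were annealed to 100 nM quencher-labelled ATP aptamer, and were imaged in selection buffer, then after 15 min with 500 uM ATP at 22 °C. Five cycles ran with NaOH stripping and re-annealing between them, and clusters outside 100-1000 RFU were excluded.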", "note": "± gives the standard deviation of the averaged measurements.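 Further: ATP exposure 15 min at 22 °C before imaging.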", "data": [{"sequence": "GACCTGGGTC", "values": [{"measurement": "switch fluorescence ratio", "value": "1.01 ± 0.0023"}]}, {"sequence": "ATGTTCAAAG", "values": [{"measurement": "switch fluorescence ratio", "value": "0.975 ± 0.017"}]}, {"sequence": "TATGTCAGAG", "values": [{"measurement": "switch fluorescence ratio", "value": "1.01 ± 0.039"}]}, {"sequence": "TGCAAATTCC", "values": [{"measurement": "switch fluorescence ratio", "value": "1.11 ± 0.021"}]}, {"sequence": "TTAGAGAGGA", "values": [{"measurement": "switch fluorescence ratio", "value": "0.987 ± 0.026"}]}, {"sequence": "CGGGGGTGGT", "values": [{"measurement": "switch fluorescence ratio", "value": "1.01 ± 0.033"}]}, {"sequence": "ATTTTTTTTA", "values": [{"measurement": "switch fluorescence ratio", "value": "0.974 ± 0.024"}]}, {"sequence": "TAGACAGCCA", "values": [{"measurement": "switch fluorescence ratio", "value": "1.02 ± 0.041"}]}, {"sequence": "TTTAGGGGTC", "values": [{"measurement": "switch fluorescence ratio", "value": "0.981 ± 0.024"}]}, {"sequence": "ACTCGGCGGT", "values": [{"measurement": "switch fluorescence ratio", "value": "2.14 ± 1.7"}]}, {"sequence": "TATATGGAGG", "values": [{"measurement": "switch fluorescence ratio", "value": "0.956 ± 0.032"}]}, {"sequence": "TTTAGCCCTT", "values": [{"measurement": "switch fluorescence ratio", "value": "1.01 ± 0.037"}]}, {"sequence": "GAACTAGTAT", "values": [{"measurement": "switch fluorescence ratio", "value": "1.01 ± 0.013"}]}, {"sequence": "TTTTGGTGTG", "values": [{"measurement": "switch fluorescence ratio", "value": "1.01 ± 0.026"}]}, {"sequence": "TGCTTGATGG", "values": [{"measurement": "switch fluorescence ratio", "value": "0.9851 ± 0.0044"}]}, {"sequence": "GGGGTGGGGT", "values": [{"measurement": "switch fluorescence ratio", "value": "1 ± 0.052"}]}, {"sequence": "TCGCGATAAA", "values": [{"measurement": "switch fluorescence ratio", "value": "1.06 ± 0.017"}]}, {"sequence": "ATTGGTCTCA", "values": [{"measurement": "switch fluorescence ratio", "value": "0.975 ± 0.023"}]}, {"sequence": "GGTCGAAATT", "values": [{"measurement": "switch fluorescence ratio", "value": "1.15 ± 0.31"}]}, {"sequence": "TGAGGGCGGC", "values": [{"measurement": "switch fluorescence ratio", "value": "0.962 ± 0.12"}]}, {"sequence": "TCTTAGGGTT", "values": [{"measurement": "switch fluorescence ratio", "value": "1.02 ± 0.017"}]}, {"sequence": "TGGGAATATC", "values": [{"measurement": "switch fluorescence ratio", "value": "1.05 ± 0.028"}]}, {"sequence": "TTGGTCTTAC", "values": [{"measurement": "switch fluorescence ratio", "value": "1.06 ± 0.096"}]}, {"sequence": "CCAACTTTTT", "values": [{"measurement": "switch fluorescence ratio", "value": "0.962 ± 0.014"}]}, {"sequence": "GCGCTACAGT", "values": [{"measurement": "switch fluorescence ratio", "value": "1.021 ± 0.0069"}]}, {"sequence": "ATTCGATATG", "values": [{"measurement": "switch fluorescence ratio", "value": "0.997 ± 0.011"}]}, {"sequence": "AGGAGTGTTC", "values": [{"measurement": "switch fluorescence ratio", "value": "1.01 ± 0.084"}]}, {"sequence": "TTTCTTTAAA", "values": [{"measurement": "switch fluorescence ratio", "value": "1.01 ± 0.019"}]}, {"sequence": "TAGAATGTTT", "values": [{"measurement": "switch fluorescence ratio", "value": "1.02 ± 0.012"}]}, {"sequence": "CCGTGACAAT", "values": [{"measurement": "switch fluorescence ratio", "value": "4.12 ± 0.34"}]}, {"sequence": "TCGGAATGGG", "values": [{"measurement": "switch fluorescence ratio", "value": "0.975 ± 0.017"}]}, {"sequence": "AAGGGGTTAA", "values": [{"measurement": "switch fluorescence ratio", "value": "1.03 ± 0.022"}]}, {"sequence": "GGGACATGTA", "values": [{"measurement": "switch fluorescence ratio", "value": "0.98 ± 0.022"}]}, {"sequence": "TAATTTGGGA", "values": [{"measurement": "switch fluorescence ratio", "value": "0.997 ± 0.013"}]}, {"sequence": "AAGTGGTACA", "values": [{"measurement": "switch fluorescence ratio", "value": "0.968 ± 0.049"}]}, {"sequence": "CCTGTTTTTA", "values": [{"measurement": "switch fluorescence ratio", "value": "0.986 ± 0.024"}]}, {"sequence": "TTTTGGGATG", "values": [{"measurement": "switch fluorescence ratio", "value": "0.978 ± 0.033"}]}, {"sequence": "CAGGCGTTGC", "values": [{"measurement": "switch fluorescence ratio", "value": "1.17 ± 0.19"}]}, {"sequence": "GATCTTATCT", "values": [{"measurement": "switch fluorescence ratio", "value": "1.03 ± 0.022"}]}, {"sequence": "CGGGTGGTGG", "values": [{"measurement": "switch fluorescence ratio", "value": "0.99 ± 0.017"}]}, {"sequence": "CAAAGGAGGT", "values": [{"measurement": "switch fluorescence ratio", "value": "1.03 ± 0.096"}]}, {"sequence": "GGGCTTGGTA", "values": [{"measurement": "switch fluorescence ratio", "value": "1 ± 0.014"}]}, {"sequence": "GGTCGAAGGG", "values": [{"measurement": "switch fluorescence ratio", "value": "0.985 ± 0.051"}]}, {"sequence": "ATAAGTAACG", "values": [{"measurement": "switch fluorescence ratio", "value": "1 ± 0.015"}]}, {"sequence": "TCCCGGGTCT", "values": [{"measurement": "switch fluorescence ratio", "value": "0.992 ± 0.029"}]}, {"sequence": "GGACTTTTTG", "values": [{"measurement": "switch fluorescence ratio", "value": "0.953 ± 0.045"}]}, {"sequence": "TTTAATGCTG", "values": [{"measurement": "switch fluorescence ratio", "value": "1.01 ± 0.021"}]}, {"sequence": "TTTTTTACGT", "values": [{"measurement": "switch fluorescence ratio", "value": "1.043 ± 0.0092"}]}, {"sequence": "CAATTTTTAG", "values": [{"measurement": "switch fluorescence ratio", "value": "1.01 ± 0.023"}]}, {"sequence": "ATGGATGGAG", "values": [{"measurement": "switch fluorescence ratio", "value": "0.99 ± 0.013"}]}, {"sequence": "GGGTTAGATT", "values": [{"measurement": "switch fluorescence ratio", "value": "0.993 ± 0.06"}]}, {"sequence": "GGATGCAGC", "values": [{"measurement": "switch fluorescence ratio", "value": "0.992 ± 0.024"}]}, {"sequence": "TGAGGAAGGT", "values": [{"measurement": "switch fluorescence ratio", "value": "1.016 ± 0.009"}]}, {"sequence": "CATTAGCGAT", "values": [{"measurement": "switch fluorescence ratio", "value": "1.5 ± 0.091"}]}, {"sequence": "GCCTGATTTA", "values": [{"measurement": "switch fluorescence ratio", "value": "0.95 ± 0.029"}]}, {"sequence": "TTGGGATTTA", "values": [{"measurement": "switch fluorescence ratio", "value": "0.95 ± 0.015"}]}, {"sequence": "GATGGGGGGA", "values": [{"measurement": "switch fluorescence ratio", "value": "1.01 ± 0.029"}]}, {"sequence": "AACCAGCGGA", "values": [{"measurement": "switch fluorescence ratio", "value": "0.994 ± 0.019"}]}, {"sequence": "AAAAAAAAAA", "values": [{"measurement": "switch fluorescence ratio", "value": "1 ± 0.022"}]}, {"sequence": "TCATTGTGGG", "values": [{"measurement": "switch fluorescence ratio", "value": "0.9799 ± 0.00084"}]}, {"sequence": "ATGGGGGGGG", "values": [{"measurement": "switch fluorescence ratio", "value": "1.01 ± 0.039"}]}, {"sequence": "TCGCCAAATT", "values": [{"measurement": "switch fluorescence ratio", "value": "1.1 ± 0.21"}]}, {"sequence": "TGTTGGTCTT", "values": [{"measurement": "switch fluorescence ratio", "value": "0.952 ± 0.032"}]}, {"sequence": "CGGATGTGCA", "values": [{"measurement": "switch fluorescence ratio", "value": "0.981 ± 0.018"}]}, {"sequence": "GTCTAATATG", "values": [{"measurement": "switch fluorescence ratio", "value": "0.9716 ± 0.0048"}]}, {"sequence": "TAGAATTGAG", "values": [{"measurement": "switch fluorescence ratio", "value": "0.984 ± 0.022"}]}, {"sequence": "TGGCGAAGAG", "values": [{"measurement": "switch fluorescence ratio", "value": "0.999 ± 0.011"}]}, {"sequence": "TTTCGGGGGA", "values": [{"measurement": "switch fluorescence ratio", "value": "1.01 ± 0.032"}]}, {"sequence": "GAATTTAAGT", "values": [{"measurement": "switch fluorescence ratio", "value": "1.009 ± 0.0048"}]}, {"sequence": "GGGGTTTCAG", "values": [{"measurement": "switch fluorescence ratio", "value": "1.02 ± 0.012"}]}, {"sequence": "TCATGGCGTG", "values": [{"measurement": "switch fluorescence ratio", "value": "0.988 ± 0.011"}]}, {"sequence": "CGCGATTTAA", "values": [{"measurement": "switch fluorescence ratio", "value": "1.056 ± 0.0088"}]}, {"sequence": "TGGGGATTTC", "values": [{"measurement": "switch fluorescence ratio", "value": "1.1 ± 0.16"}]}, {"sequence": "CGGGATGTTG", "values": [{"measurement": "switch fluorescence ratio", "value": "1.02 ± 0.035"}]}, {"sequence": "AGTTTCAGGC", "values": [{"measurement": "switch fluorescence ratio", "value": "1.01 ± 0.031"}]}, {"sequence": "CAGGGTATGA", "values": [{"measurement": "switch fluorescence ratio", "value": "1.007 ± 0.0046"}]}, {"sequence": "CTGGTAAATC", "values": [{"measurement": "switch fluorescence ratio", "value": "1.02 ± 0.026"}]}, {"sequence": "ATGGGCGCAG", "values": [{"measurement": "switch fluorescence ratio", "value": "0.99 ± 0.05"}]}, {"sequence": "ACGTCTTTGT", "values": [{"measurement": "switch fluorescence ratio", "value": "1 ± 0.088"}]}, {"sequence": "AATCCGTGTG", "values": [{"measurement": "switch fluorescence ratio", "value": "1.01 ± 0.019"}]}, {"sequence": "CTGCGAGGGG", "values": [{"measurement": "switch fluorescence ratio", "value": "1 ± 0.016"}]}, {"sequence": "GTTAAAGGGC", "values": [{"measurement": "switch fluorescence ratio", "value": "1.03 ± 0.034"}]}, {"sequence": "AACGTGGCGT", "values": [{"measurement": "switch fluorescence ratio", "value": "1.023 ± 0.0066"}]}, {"sequence": "CTTTTTAGTG", "values": [{"measurement": "switch fluorescence ratio", "value": "0.982 ± 0.023"}]}, {"sequence": "GGATTGTCAG", "values": [{"measurement": "switch fluorescence ratio", "value": "0.9847 ± 0.0024"}]}, {"sequence": "CGTCTTGGAA", "values": [{"measurement": "switch fluorescence ratio", "value": "1.01 ± 0.013"}]}, {"sequence": "TTTGAGTGGG", "values": [{"measurement": "switch fluorescence ratio", "value": "0.994 ± 0.025"}]}, {"sequence": "AATTGAGGCG", "values": [{"measurement": "switch fluorescence ratio", "value": "1.02 ± 0.089"}]}, {"sequence": "CGGGTAAGGG", "values": [{"measurement": "switch fluorescence ratio", "value": "1.01 ± 0.04"}]}, {"sequence": "TTTGATATGG", "values": [{"measurement": "switch fluorescence ratio", "value": "0.999 ± 0.038"}]}, {"sequence": "AGCATGGTGG", "values": [{"measurement": "switch fluorescence ratio", "value": "1.02 ± 0.046"}]}, {"sequence": "GCTGATTTCG", "values": [{"measurement": "switch fluorescence ratio", "value": "1 ± 0.029"}]}, {"sequence": "AGTTTTAAGG", "values": [{"measurement": "switch fluorescence ratio", "value": "1 ± 0.025"}]}, {"sequence": "GTGGGTATTG", "values": [{"measurement": "switch fluorescence ratio", "value": "1 ± 0.02"}]}, {"sequence": "GGTTGTATTT", "values": [{"measurement": "switch fluorescence ratio", "value": "0.962 ± 0.06"}]}, {"sequence": "CTTATCATAT", "values": [{"measurement": "switch fluorescence ratio", "value": "1.09 ± 0.1"}]}, {"sequence": "TAAGGGTGCT", "values": [{"measurement": "switch fluorescence ratio", "value": "1.039 ± 0.0037"}]}, {"sequence": "GTTGGGGGAA", "values": [{"measurement": "switch fluorescence ratio", "value": "0.983 ± 0.023"}]}, {"sequence": "GGAGTTGTTG", "values": [{"measurement": "switch fluorescence ratio", "value": "0.99 ± 0.009"}]}, {"sequence": "ATGTATTGCG", "values": [{"measurement": "switch fluorescence ratio", "value": "0.988 ± 0.044"}]}]}
